The supplement of paper PMC9112550, “Optimization of the antimicrobial peptide Bac7 by deep mutational scanning” (BMC Biology, 2022)

Test system: Escherichia coli TOP10
Assay: shrunken log2 fold change of peptide-encoding DNA abundance (4.5 h post-induction vs induction); higher = less antimicrobial activity (less host growth inhibition)
Details: time post-induction: 4.5 h; library: site-saturation at positions 5, 18, 19, 20
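Further: peptides expressed intracellularly from a pBAD plasmid library in pooled LB shake-flask culture, induced with 0.3% L-arabinose, DNA abundance read by NGS, three biological replicates, DESeq2 with apeglm shrinkage.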

Sequence	shrunken log2 fold change
RRIRFRPPRLPRPRPRPEKHPRP	0.176
RRIRHRPPRLPRPRPRPNWYPRP	-0.928
RRIRPRPPRLPRPRPRPQQVPRP	0.14
RRIRFRPPRLPRPRPRPFTKPRP	-0.411
RRIRSRPPRLPRPRPRPYFHPRP	-0.853
RRIRQRPPRLPRPRPRPDACPRP	0.0301
RRIRYRPPRLPRPRPRPLHYPRP	-1.53
RRIRGRPPRLPRPRPRPHCYPRP	0.0539
RRIRYRPPRLPRPRPRPEFRPRP	-0.0207
RRIRTRPPRLPRPRPRPITYPRP	-0.0511
RRIRCRPPRLPRPRPRPFINPRP	-1.1
RRIRQRPPRLPRPRPRPMFFPRP	-0.0364
RRIRGRPPRLPRPRPRPHARPRP	0.629
RRIRFRPPRLPRPRPRPDTHPRP	-0.618
RRIRCRPPRLPRPRPRPIRKPRP	-0.126
RRIRCRPPRLPRPRPRPPVDPRP	0.787
RRIRARPPRLPRPRPRPSKTPRP	0.314
RRIRKRPPRLPRPRPRPIWCPRP	-0.0231
RRIRNRPPRLPRPRPRPRHTPRP	-0.096
RRIRKRPPRLPRPRPRPEGVPRP	1.44
RRIRMRPPRLPRPRPRPDYRPRP	-0.146
RRIRWRPPRLPRPRPRPRTQPRP	0.276
RRIRMRPPRLPRPRPRPNQDPRP	-0.123
RRIRERPPRLPRPRPRPLNGPRP	-0.254
RRIRKRPPRLPRPRPRPRRQPRP	0.333

Sequence	shrunken log2 fold change
RRIRARPPRLPRPRPRPCYLPRP	-0.262
RRIRFRPPRLPRPRPRPMHNPRP	-0.52
RRIRKRPPRLPRPRPRPQKKPRP	-0.111
RRIRWRPPRLPRPRPRPWKAPRP	-0.00884
RRIRGRPPRLPRPRPRPTPYPRP	0.324
RRIRARPPRLPRPRPRPIMIPRP	-0.261
RRIRERPPRLPRPRPRPAQEPRP	0.597
RRIRLRPPRLPRPRPRPFGKPRP	-0.168
RRIRARPPRLPRPRPRPCPQPRP	-0.00027
RRIRARPPRLPRPRPRPTWLPRP	0.33
RRIRLRPPRLPRPRPRPFNFPRP	-0.855
RRIRMRPPRLPRPRPRPMNRPRP	-0.24
RRIRIRPPRLPRPRPRPQDCPRP	0.00138
RRIRMRPPRLPRPRPRPAVQPRP	0.0778
RRIRNRPPRLPRPRPRPGHTPRP	-0.175
RRIRHRPPRLPRPRPRPQKTPRP	0.00246
RRIRQRPPRLPRPRPRPIPSPRP	-0.0138
RRIRPRPPRLPRPRPRPQVEPRP	0.102
RRIRLRPPRLPRPRPRPIHKPRP	0.195
RRIRHRPPRLPRPRPRPWELPRP	-0.0835
RRIRMRPPRLPRPRPRPAYYPRP	-0.3
RRIRARPPRLPRPRPRPELAPRP	1.39
RRIRIRPPRLPRPRPRPFILPRP	-0.275
RRIRARPPRLPRPRPRPTGDPRP	0.604
RRIRMRPPRLPRPRPRPSFFPRP	0.0666

Sequence	shrunken log2 fold change
RRIRMRPPRLPRPRPRPKVPPRP	0.882
RRIRYRPPRLPRPRPRPPFQPRP	-0.22
RRIRHRPPRLPRPRPRPTKAPRP	-0.0108
RRIRERPPRLPRPRPRPHWTPRP	-0.0453
RRIRGRPPRLPRPRPRPYLRPRP	-0.0169
RRIRYRPPRLPRPRPRPANVPRP	-0.00291
RRIRTRPPRLPRPRPRPDHCPRP	-0.116
RRIRNRPPRLPRPRPRPRGAPRP	0.601
RRIRYRPPRLPRPRPRPVRWPRP	0.164
RRIRTRPPRLPRPRPRPIVMPRP	-0.114
RRIRMRPPRLPRPRPRPESQPRP	2.59
RRIRPRPPRLPRPRPRPWMDPRP	-0.934
RRIRDRPPRLPRPRPRPWVKPRP	0.0766
RRIRCRPPRLPRPRPRPRGEPRP	0.435
RRIRFRPPRLPRPRPRPSVLPRP	-0.246
RRIRFRPPRLPRPRPRPLNAPRP	-0.166
RRIRNRPPRLPRPRPRPIRTPRP	-0.176
RRIRCRPPRLPRPRPRPAQEPRP	0.101
RRIRSRPPRLPRPRPRPSLAPRP	0.164
RRIRVRPPRLPRPRPRPDNEPRP	-0.185
RRIRFRPPRLPRPRPRPTCCPRP	-0.0828
RRIRKRPPRLPRPRPRPSADPRP	0.027
RRIRYRPPRLPRPRPRPHCIPRP	-0.0129
RRIRLRPPRLPRPRPRPTFQPRP	-0.098
RRIRQRPPRLPRPRPRPYHKPRP	0.0375

Sequence	shrunken log2 fold change
RRIRTRPPRLPRPRPRPEVHPRP	0.00869
RRIRARPPRLPRPRPRPMVIPRP	0.0235
RRIRNRPPRLPRPRPRPCGYPRP	0.019
RRIRWRPPRLPRPRPRPKKDPRP	0.223
RRIRTRPPRLPRPRPRPPMRPRP	0.957
RRIRYRPPRLPRPRPRPVPPPRP	0.208
RRIRFRPPRLPRPRPRPGELPRP	0.245
RRIRSRPPRLPRPRPRPYYYPRP	-0.507
RRIRTRPPRLPRPRPRPDAEPRP	0.117
RRIRERPPRLPRPRPRPWIYPRP	0.013
RRIRERPPRLPRPRPRPAHDPRP	-0.181
RRIRKRPPRLPRPRPRPAMWPRP	0.241
RRIRQRPPRLPRPRPRPHAHPRP	0.000761
RRIRLRPPRLPRPRPRPDPLPRP	0.172
RRIRIRPPRLPRPRPRPVAYPRP	-0.0713
RRIRFRPPRLPRPRPRPKEIPRP	-0.0277
RRIRYRPPRLPRPRPRPLITPRP	-0.749
RRIRNRPPRLPRPRPRPSHGPRP	0.108
RRIRIRPPRLPRPRPRPTWMPRP	-0.306
RRIRLRPPRLPRPRPRPPECPRP	-0.29
RRIRARPPRLPRPRPRPNKIPRP	-0.136
RRIRQRPPRLPRPRPRPRPWPRP	0.858
RRIRPRPPRLPRPRPRPWMHPRP	0.0123
RRIRDRPPRLPRPRPRPVKYPRP	-0.346
RRIRKRPPRLPRPRPRPIEFPRP	0.0427

Sequence	shrunken log2 fold change
RRIRRRPPRLPRPRPRPPIMPRP	-0.0528
RRIRSRPPRLPRPRPRPFTGPRP	-0.261
RRIRERPPRLPRPRPRPGCHPRP	-0.0878
RRIRGRPPRLPRPRPRPPAFPRP	1.09
RRIRPRPPRLPRPRPRPHRPPRP	0.0359
RRIRARPPRLPRPRPRPYKSPRP	-0.441
RRIRCRPPRLPRPRPRPAEQPRP	0.252
RRIRIRPPRLPRPRPRPWVWPRP	0.414
RRIRQRPPRLPRPRPRPQANPRP	-0.165
RRIRKRPPRLPRPRPRPVHPPRP	0.189
RRIRRRPPRLPRPRPRPLILPRP	0.0353
RRIRSRPPRLPRPRPRPTISPRP	-0.655
RRIRKRPPRLPRPRPRPMHHPRP	-0.126
RRIRFRPPRLPRPRPRPAAAPRP	0.551
RRIRSRPPRLPRPRPRPLVCPRP	0.0734
RRIRFRPPRLPRPRPRPAYMPRP	-0.564
RRIRVRPPRLPRPRPRPYPVPRP	-0.419
RRIRARPPRLPRPRPRPSIWPRP	0.352
RRIRRRPPRLPRPRPRPCYTPRP	-0.112
RRIRIRPPRLPRPRPRPKQPPRP	0.102
RRIRYRPPRLPRPRPRPFPEPRP	-0.423
RRIRHRPPRLPRPRPRPVNDPRP	-0.0193
RRIRIRPPRLPRPRPRPHSMPRP	-0.382
RRIRFRPPRLPRPRPRPPEHPRP	0.682
RRIRFRPPRLPRPRPRPRGSPRP	0.432

Sequence	shrunken log2 fold change
RRIRSRPPRLPRPRPRPYISPRP	-0.0172
RRIRWRPPRLPRPRPRPLCSPRP	0.13
RRIRWRPPRLPRPRPRPFNDPRP	-0.153
RRIRFRPPRLPRPRPRPGHTPRP	-0.445
RRIRNRPPRLPRPRPRPDQAPRP	-0.01
RRIRNRPPRLPRPRPRPLVAPRP	-0.124
RRIRFRPPRLPRPRPRPVKHPRP	-0.222
RRIRRRPPRLPRPRPRPDGVPRP	0.268
RRIRARPPRLPRPRPRPWIMPRP	-0.332
RRIRHRPPRLPRPRPRPTRQPRP	0.254
RRIRMRPPRLPRPRPRPWAKPRP	0.0317
RRIRSRPPRLPRPRPRPRHRPRP	0.121
RRIRKRPPRLPRPRPRPWLIPRP	0.109
RRIRKRPPRLPRPRPRPGNYPRP	-0.113
RRIRMRPPRLPRPRPRPFALPRP	0.0192
RRIRIRPPRLPRPRPRPFRDPRP	-0.111
RRIRHRPPRLPRPRPRPVDCPRP	-0.0119
RRIRTRPPRLPRPRPRPYFWPRP	-0.299
RRIRERPPRLPRPRPRPAAIPRP	-0.215
RRIRLRPPRLPRPRPRPFFNPRP	-0.359
RRIRERPPRLPRPRPRPAFCPRP	-0.21
RRIRYRPPRLPRPRPRPDHSPRP	-0.889
RRIRGRPPRLPRPRPRPWFSPRP	-0.246
RRIRFRPPRLPRPRPRPFCHPRP	-0.433
RRIRRRPPRLPRPRPRPCIMPRP	-0.191
